Several values for one entry are separate records, joined by “and”; a condition that tells them apart may be missing. Equal entries are not always repeated.
B1: Tryptophan synthase alpha chain, P0A877 (parent)
chain: MERYESLFAQLKERKEGAFVPFVTLGDPGIEQSLKIIDTLIEAGADALELGIPFSDPLADGPTIQNATLRAFAAGVTPAQCFEMLALIRQKHPTIPIGLLMYANLVFNKGIDEFYAQCEKVGVDSVLVADVPVEESAPFRQAALRHNVAPIFICPPNADDDLLRQIASYGRGYTYLLSRAGVTGAENRAALPLNHLVAKLKEYNAAPPLQGFGISAPDQVKAAIDAGAAGAISGSAIVKIIEQHINEPEKMLAALKVFVQPMKAATRS

Variants of: B1
Settings: Escherichia coli (strain K12); pH 7.8; 25 °C; Urea; Absorbance; Potassium phosphate 10 mM; transition: 3; structure 1WQ5; whole UniProt chain shown

| Variant | denaturant m value | denaturant midpoint (higher = more stable) | ddG of mutation (higher = less stable) |
| --- | --- | --- | --- |
| MERYESLFAQLKERKEGAFVPFVTLGDPGIEQSLKIIDTLIEAGADALELGIPFSDPLADGPTIQNATLRAFAAGVTPAQCFEMLALIRQKHPTIPIGLLMYANLVFNKGIDEFYAQCEKVGVDSVLVADVPVEESAPFRQAALRHNVAPIFICPPNADDDLLRQIASYGRGYTYLLSRAGVTGAENRAALPLNHLVAKLKEYNAAPPLQEFGISAPDQVKAAIDAGAAGAISGSAIVKIIEQHINEPEKMLAALKVFVQPMKAATRS [G211E] | 3 kcal/mol/M and 1.5 kcal/mol/M | 2.73 M and 3.72 M |  |
| MERYESLFAQLKERKEGAFVPFVTLGDPGIEQSLKIIDTLIEAGADALELGIPFSDPLADGPTIQNATLRAFAAGVTPAQCFEMLALIRQKHPTIPIGLLMYANLVFNKGIDEFYAQCEKVGVDSVLVADVPVEESAPFRQAALRHNVAPIFICPPNADDDLLRQIASYGRGYTCLLSRAGVTGAENRAALPLNHLVAKLKEYNAAPPLQEFGISAPDQVKAAIDAGAAGAISGSAIVKIIEQHINEPEKMLAALKVFVQPMKAATRS [Y175C G211E] | 3 kcal/mol/M and 1.4 kcal/mol/M | 2.2 M and 3.49 M | 1.3 kcal/mol and 1 kcal/mol |
| MERYESLFAQLKERKEGAFVPFVTLGDPGIEQSLKIIDTLIEAGADALELGIPFSDPLADGPTIQNATLRAFAAGVTPAQCFEMLALIRQKHPTIPIGLLMYANLVFNKGIDEFYAQCEKVGVDSVLVADVPVEESAPFRQAALRHNVAPIFICPPNADDDLLRQIASYGRGYTCLLSRAGVTGAENRAALPLNHLVAKLKEYNAAPPLQGFGISAPDQVKAAIDAGAAGAISGSAIVKIIEQHINEPEKMLAALKVFVQPMKAATRS [Y175C] | 3 kcal/mol/M and 1.1 kcal/mol/M | 2.58 M and 3.71 M |  |

Source: FireProtDB (doi:10.1021/bi00369a002)
